Consider four molecules from patent publication US20110086026A1 (ROCHE PALO ALTO, published 2011).

Changes are numbered by the printed parent chain.

The chains are these.
B1: HuMab LC5002-005 (antibody, V domains shown)
VH: EVQVLDSGGGLVQPGGSLRLSCTASGFTFRLYTMSWVRQTPGRGLEWVSGISGSGLSTYFADSVKGRFTISRDNSKNTVYLQMNSLRAEDTAVYYCAKEGDWIYFDSWGQGTLVIVSS
VL: DIQMTQSPSSLSASVGDRVTITCRASQGISSWLAWYQQKPEKAPKSLIYAASSLQSGVPSRFSGSGSGTDFTLTISSLQPEDFATYYCQQYNSHPPTFGQGTKLEIK
notes: Only the variable domains are tied to this antibody; also called hu-MAB<h-IL-13Ralpha>LC.5002-005 (DSM ACC2711)
B2: HuMab LC5002-002 (antibody, human IgG1, V domains shown)
VH: EVQLLESGGGLVQPGGSLRLSCAASGFTFNIYAMNWVRQAPGKGLEWVSVISGRGITTYYADSVKGRFTISRDNSKNTLYLQMNSLRADDTAVYYCAKGSSSWTDFDYWGQGTLVTVSS
VL: B1 VL with S31R, L33V, H94Y, P96W, L104V
notes: Human IgG1 kappa from a HuMab mouse hybridoma; Only the variable domains are tied to this antibody; also called hu-MAB<h-IL-13R alpha>LC.5002-002 (DSM ACC2709)
B3: HuMab LC5002-003 (antibody, V domains shown)
VH: B2 VH with G10D, V12I, N84D, D89E, S102Y
VL: B1 VL with H94Y, P96W, L104V
notes: Human IgG1 kappa from a HuMab mouse hybridoma; Only the variable domains are tied to this antibody; also called LC50002-003; hu-MAB<h-IL-13Ralpha>LC.5002-003 (DSM ACC2710)
B4: HuMab LC5002-007 (antibody, human IgG1, V domains shown)
VH: QVQLVQSGAEVKKPGSSVKVSCKVSGGTFSSYAFSWVRQAPGQGLEWMGRIIPILGRTNYAQKFQGRVTITADKSTSTAYMEVSSLRSEDTAVYYCAREGETLDYFYYGMDVWGQGTTVTVSS
VL: EIVLTQSPGTLSLSPGERATLSCRASQSVSSSYLAWYQQKPGQAPRLLIYGASSRAIGIPDRFSGSGSGTDFTLTISRLEPEDFAVYYCQHYGSSLTFGGGTKVEIK
notes: Human IgG1 kappa from a HuMab mouse hybridoma; Only the variable domains are tied to this antibody; also called hu-MAB<h-IL-13R alpha>LC.5002-007 (DSM ACC2712)

The target in one test is T1, human IL-13Rα1 (human, UniProt P78552 22-427).
T1 construct: whole, on cells; also called IL-13Ralpha1; IL-13Rα1 on CHO cells expressing human IL-13Rα1 and human IL-4Rα
T1 sequence (looked up): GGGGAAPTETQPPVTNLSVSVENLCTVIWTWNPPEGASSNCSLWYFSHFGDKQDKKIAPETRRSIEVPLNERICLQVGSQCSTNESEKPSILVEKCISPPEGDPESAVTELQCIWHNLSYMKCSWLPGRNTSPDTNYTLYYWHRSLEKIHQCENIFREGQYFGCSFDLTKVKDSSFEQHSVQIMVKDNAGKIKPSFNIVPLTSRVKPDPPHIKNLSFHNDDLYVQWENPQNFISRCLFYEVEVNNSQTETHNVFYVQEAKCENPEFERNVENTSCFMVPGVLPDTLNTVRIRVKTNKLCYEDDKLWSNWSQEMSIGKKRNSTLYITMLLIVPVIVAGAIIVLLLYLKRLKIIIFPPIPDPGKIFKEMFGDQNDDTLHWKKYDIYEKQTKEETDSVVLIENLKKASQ
The test is described as follows: radioligand competition: 125I-IL-13 (0.1 nM) binding to CHO cells expressing human IL-13Rα1 and IL-4Rα. As for the experimental part:
¹²⁵I-IL-13 binding assay was performed using CHO cells expressing human IL-13Rα1 and human IL-4Rα in binding buffer (25 mM HEPES, 150 mM NaCl, 1 mM CaCl₂, 5 mM MgCl₂, and 0.5% bovine serum albumin, adjusted to pH 7.2). 1×10⁵ cells per well were mixed with the antibodies and preincubated for 15 minutes to 1 hour. 0.1 nM ¹²⁵I-IL-13 was added, and the mix was incubated at 4° C. for 4 hours. The concentration of ¹²⁵I-IL-13 used in the assay was determined from saturation binding analysis, competition analysis and determination of input ¹²⁵I-IL-13 to reach equilibrium binding with the cell line. Samples were harvested onto a GF/C filter plate pretreated with 1% PEI/0.5% BSA and counted on Packard TopCount Scintillation counter. Data analysis was performed in PRISM using nonlinear regression curve fit (GraphPad Software, San Diego, Calif.).
(In general: Displacement assays read how much labelled ligand stays bound in the presence of the test substance.)
Consider B1, for which the “IC50 (read off the curve)” value was ~0.1 nM.
As for B2, the “IC50 (read off the curve)” value was ~0.1 nM.
Same read-out and setting: for B3 the value was ~0.2 nM.

The next test addresses T2, extracellular domain of IL-13Rα1 (R&D Systems, UK) (human, UniProt P78552 22-343).
T2 construct: extracellular domain; Bought; also called recombinant human IL-13Rα1 polypeptide; immobilized extracellular domains of human IL-13Rα1
T2 sequence (looked up): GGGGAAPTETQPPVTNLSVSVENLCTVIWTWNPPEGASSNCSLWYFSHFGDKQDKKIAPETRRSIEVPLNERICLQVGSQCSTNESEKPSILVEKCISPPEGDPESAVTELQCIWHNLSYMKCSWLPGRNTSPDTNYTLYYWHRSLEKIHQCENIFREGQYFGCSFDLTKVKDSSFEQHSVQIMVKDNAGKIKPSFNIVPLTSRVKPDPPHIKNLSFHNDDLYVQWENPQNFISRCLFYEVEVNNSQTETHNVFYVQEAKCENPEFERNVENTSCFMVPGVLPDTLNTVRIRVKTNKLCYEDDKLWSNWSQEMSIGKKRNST
Nature of the test: ELISA, immobilized extracellular domain of human IL-13Rα1, detection with anti-human kappa-POD, OD 405nm-492nm. How it is done: To determine the ability of the antibodies of the invention to bind to recombinant IL-13Rα1, the extracellular domain of IL-13Rα1 (R&D Systems, UK) was dissolved in PBS (1 μg/ml) and allowed to adsorb to microtiter plates (NUNC Maxisorb) by incubation over night at 4° C. After washing the plates with washing buffer (WB=0.9% NaCl; 0.1% Tween® 20) unspecific binding sites were blocked by addition of 100 μl incubation buffer (IB=PBS with 1% crotein C and 0.1% Tween® 20) and incubation for 30 min at room-temperature (RT). Then, serially diluted HuMab and control antibodies (100 μl/well; dilutions in IB) were added and incubated for 1 hour at RT. The plates were again washed, and bound human antibodies were detected by incubation with peroxidase-conjugated rabbit anti-human kappa (DAKO, Denmark) in a final dilution of 1:500 in IB. Polyclonal goat anti-hIL-13Rα1 antibodies were detected with peroxidase-conjugated polyclonal donkey anti-goat IgG (Santa Cruz; dilution 1:1000 in IB). After incubation for 1 h at RT and a subsequent washing step, the plates were developed with ready-to-use ABTS® solution (Roche Diagnostics GmbH) at RT in the dark. Absorbance was measured at 405 nm after absorbance of the highest concentration reached a sufficient OD.
On the technique in general: ELISA stands for enzyme-linked immunosorbent assay.
By EC50 (read off the curve) is commonly meant the concentration that produces a half-maximal response. With B4, the concentration for a half-maximal effect (EC50 (read off the curve)) is ~0.8 nM.
The same measure, in the same setting: for B1 the value was ~1 nM; for B2, ~1 nM.
Same read-out and setting: the value for B3 was 1 to 2 nM.

Another test addresses T3, hIL-13Rα1:hFc chimeric protein (R&D Systems, UK) (human, UniProt P78552 22-343).
T3 construct: extracellular domain; Bought; also called chimeric hIL-13Rα1:hFc; not shown: human Fc (hFc) of the bought chimera
T3 sequence (looked up): T2 sequence (looked up)
Nature of the test: competition ELISA: hIL-13Rα1:hFc coated, antibody first, then IL-13 plus IL-4Rα; bound IL-13 detected with biotinylated anti-IL-13. As for the experimental part: Microtiter plates were coated with 100 μl hIL-13Rα1:hFc chimeric protein (R&D Systems, UK) in PBS at 3 μg/ml at 4° C. overnight on a shaker. After washing the plates with WB, serially diluted HuMab and control antibodies (100 μl/well; dilutions in IB) were added and incubated for 30 min at RT. The plates were again washed, and then a mixture of IL-13 (R&D Systems, UK; 0.5 μg/ml; dilution with IB) and IL-4Rα (R&D Systems, UK; 0.75 μg/ml; dilution with IB) were added and incubated for 1 h at RT. After washing the plates 100 μl biotinylated anti IL-13 antibody (BAF213; R&D Systems, UK) in a concentration of 0.4 μg/ml was added and incubated for 1 h at RT. After washing the plates, bound IL-13 was detected by peroxidase-coupled streptavidin (Roche Diagnostics GmbH, DE) in a dilution of 1:5000 in IB (incubation period 1 h at RT). Finally, plates were washed and developed with ready-to-use ABTS® solution (Roche Diagnostics GmbH, DE) at room temperature (RT) in the dark. Absorbance was measured at 405 nm after 45 to 60 minutes.
As for B4, the “IC50 (read off the curve)” value was ~1 nM.
Same read-out and setting: for B2 the value was 1 to 2.5 nM; for B3, ~2 nM.

The next test deals with T1, human IL-13Rα1. The test is described as follows: cell-based or functional assay.
Turning to B1, the “IC50, IL-13-induced Stat-6 phosphorylation in BSMC” value was found to be 1.18 nM and the “IC50, TF-1 proliferation in response to IL-13” value (shortened to “IC50, TF-1 proliferation”) was 0.39 nM.
On to B2, for which the “IC50, TF-1 proliferation” value came out at 9.21 nM.
On to B3, for which the “IC50, IL-13-induced Stat-6 phosphorylation in BSMC” value amounted to 5.98 nM and the “IC50, TF-1 proliferation” value stood at 3.07 nM.
